Drawing on patent publication US20220169708A1 (University of California, published 2022), this text covers EC50 for 8 molecules.

T1: cystic fibrosis transmembrane conductance regulator (CFTR) inhibitory factor (Cif) (Pseudomonas aeruginosa, UniProt A0A0H2ZD27 25-319)
T1 construct: also called CIF protein; Cif-protein
T1 sequence: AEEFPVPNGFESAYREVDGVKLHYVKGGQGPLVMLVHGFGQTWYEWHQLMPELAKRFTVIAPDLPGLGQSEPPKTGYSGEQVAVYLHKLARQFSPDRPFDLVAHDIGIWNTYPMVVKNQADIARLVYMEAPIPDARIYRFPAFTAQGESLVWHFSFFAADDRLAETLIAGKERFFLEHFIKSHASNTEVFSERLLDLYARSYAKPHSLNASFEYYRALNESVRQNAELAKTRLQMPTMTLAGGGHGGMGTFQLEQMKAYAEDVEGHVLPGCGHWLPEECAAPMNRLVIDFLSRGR

B1: VHH CLONE 103 (VHH)
VHH: EVQLMESAGGLVRPGGSLRLSCVASGSIGDIYSMGWYRQAPGKQRELVATVGAGGLTDYGDSVLGRFTISRDKTKGTVSLEMNSLKPEDTAVYYCNADVSIGPTGLRVYWGQGTQVTVSS
notes: The entry includes the C-terminal 6xHis and HA tags
B2: VHH CLONE 302 (VHH)
VHH: QVKLQESGGGLVQPGGSLRLSCVASGNIGDIYTMGWYRQAPGKQRELVATVGDGGLTNFVDSVKGRFTISRDKSKGTVSLEMNSLKPEDTAVYYCNADVRIGPTGLRVYWGQGTQVTVSS
notes: as for B1
B3: VHH CLONE 220 (VHH)
VHH: B2 VHH with Q1E, K3Q, Q5V, D30N, T50A, D53A, G55E, F59Y, R100S
notes: The entry includes the C-terminal 6xHis and HA tags; also called nanobody 220
B4: VHH CLONE 116 (VHH)
VHH: EVQLVESGGGLVQPGGSLRLSCTASGSILKIYTMDWYRQAPGKQRDLVATVSSRGDTDYTDSVKGRFTISRDDAKNTAYLQMSSLKPEDTAVYYCNFYIQSRTAPFNDYWGQGTQVTVSS
notes: as for B1
B5: VHH CLONE 205 (VHH)
VHH: DVQLQASGGGLVQPGGSLRLSCAATGSTDRIAFMGWYRQAPGKLRELVAGITSDGRTNYADDVDVSGRFTISRDSAKNMVYLQMNSLKPEDTAVYYCNADITLAMGGLRVYWGQGTQVTVSS
notes: as for B1
B6: VHH CLONE 213 (VHH)
VHH: B2 VHH with Q1E, K3Q, Q5V, G8V
notes: as for B1
B7: VHH CLONE 320 (VHH)
VHH: DVQLQASGGGLVQPGGSLRLSCATSTSVFSITTLGWYRQAPGKQRELVASMKRGGDTNYADSVKGRFTISRDNARNTVFLQMNNLTTEDTAVYYCNAAILAYTGAVTNYWGQGTQVTVSS
notes: The entry includes the C-terminal 6xHis and HA tags; also called nanobody 320
B8: VHH CLONE 108 (VHH)
VHH: EVQLVESGGGLVQPGGSLRLSCEATGNFDDRGIGWFRQAPGKEREGIACITTRGRTHYAESVEGRFTISTDIANNAVYLQMNSLKPEDTAVYYCAKAIRLTTDRTQCVAFPGVSWGRGTQVTVSS
notes: as for B1

Where a chain is given by its changes, count along the chain named.

The first assay has as its target T1, cystic fibrosis transmembrane …. In words: sandwich ELISA, lower graph: Cif in serial dilution (about 0.05-100 ng/mL) captured on anti-Cif pAb 0.3 ug/well, VHH 50 ng/well, anti-HA mAb detection; the concentration is that of Cif; sheet labels the value IC50, text calls it EC50. On the procedure: (§1) 1). Immunoassay. A 96-well plate was coated with pAb at 3 μg/mL, 100 μL per well at RT for 1 h. The plate was blocked with 1% skimmed milk in PBST at RT for at least 2 h. Cif in PBS was loaded on the plate with increasing concentration and incubated for 1 h at RT. Following 5 times wash with PBST, VHH at 0.5 μg/mL in PBS, 100 μL per well (or 50 ng/well) was loaded. The plate was incubated for 1h at RT and then washed 5 times with wash buffer. Mouse anti-HA-HRP conjugate was added at 100 μl/well in a 1:3000 dilution as instructed by manufacturer. The plate was incubated for 1h at RT and washed 5 times. The plate was developed for 10 min with substrate solution added at 100 μl/well. The reaction was stopped by addition of 2M H₂SO₄ (50 μl/well) and absorbance was read at 450 nm. SigmaPlot 11.0 software was used for curve fitting and data analysis.
(§2) To evaluate produced recombinant antibodies, classical sandwich ELISA was performed using purified rabbit polyclonal anti-Cif antibodies as a capturing antibody (FIG. 3). […] Cif protein was loaded in a serial dilution range of 0.05-100 ng/mL and VHHs were added at 50 ng per well.
Molecule B1 displayed a concentration for a half-maximal effect (EC50) of 0.0168 µg/mL.

In turn, B2 returned an EC50 of 0.0172 µg/mL.

B3 yielded an EC50 of 0.0211 µg/mL. This EC50 and that of the molecule before are within 1.5-fold of each other.

In turn, B4 displayed a concentration giving a half-maximal response (EC50) of 0.0312 µg/mL.

In turn, B5 registered an EC50 of 0.0207 µg/mL.

The target is the same in the next assay. In words: sandwich ELISA, upper graph: Cif in serial dilution (about 0.05-100 ng/mL) captured on anti-Cif pAb 0.3 ug/well, VHH 50 ng/well, anti-HA mAb detection; the concentration is that of Cif; sheet labels the value IC50, text calls it EC50. The procedure: as §1, §2
In general terms: ELISA stands for enzyme-linked immunosorbent assay.
On to B6, for which a half-maximal effect (EC50) was put at 0.011 µg/mL.

With B7, the EC50 was 0.0061 µg/mL.

For B8, a half-maximal response (EC50) required 0.0098 µg/mL.

A word on the EC50: it is the concentration that produces a half-maximal response.
